Columns and labels:
[1] = biological target: T1, huBTLA:huIgG recombinant fusion protein (human, UniProt Q7Z6A9 31-157, limits assumed); test: ELISA screen against huBTLA:huIgG (with purified huIgG as counter-screen)
T1 construct: Produced in 293T cells; Used as the immunogen and as the ELISA screening antigen; not shown: human IgG portion
T1 sequence (looked up): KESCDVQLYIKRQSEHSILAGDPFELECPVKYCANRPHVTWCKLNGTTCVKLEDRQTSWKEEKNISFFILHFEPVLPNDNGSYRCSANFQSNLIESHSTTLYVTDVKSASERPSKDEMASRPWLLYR

[2] = biological target: T2, human BTLA expressed on cells (human, UniProt Q7Z6A9 31-289); test: flow cytometry on MEF cells expressing huBTLA compared to non-BTLA expressing parental cells
T2 construct: whole, on cells; also called huBTLA; B and T lymphocyte attenuator

B1: anti-human BTLA monoclonal antibody clone 6F4 (antibody, V domains shown)
VH: EVQILETGGGLVKPGGSLRLSCATSGFNFNDYFVNWVRQAPGKGLQWVAQIRNKNYNPATYYAESLEGRVTISRDDSKSSVYLQVSSVRAEDTAIYYCSPISSYYHDGSLHYSDYWGQGVMVTVSS
VL: DIQMTQSPSVLSVSVGDRVTLNCKASHNIKNYLNWYQQKLGEAPKLLIYDTVNLQTGIPSRFSGSGSGTDFTVTISSLQPEDVATYFCFQYHSWPYTFGAGTKLELKR
notes: also called rat anti-hBLTA Mab Clone 6F4; Anti BTLA 6F4
B1: binds [1]; binds [2].
